The text below walks through data of patent publication US20240377408A1 (ENCODIA, published 2024).

The target in assay [1] is T1, human carbonic anhydrase 2 (wild-type hCAII) (Homo sapiens, UniProt P00918 4-259). Nature of the assay: cell-based or functional assay.
In assay [2] the target is T1, human carbonic anhydrase 2 (wild-type …). Nature of the assay: cell-based or functional assay. This is another data set of the same source.

Ends that are not written are not given here. * marks the point of attachment. Benzoyl(4-SO2NH2) = NS(=O)(=O)c1ccc(C(=O)*)cc1; M65 = not defined here; M67 = not defined here; M75 = not defined here; M76 = not defined here; M88 = not defined here

B1: M75-AAEIR (peptide)
peptide: M75-AAEIR
modifications: reading uncertain; also: printed as M75-AAEIR
In the case of B1, the “NTM-AAEIR IC50 (µM), colorimetric IC50 assay (pNPA hydrolysis by wild-type hCAII)” value (from here on “NTM-AAEIR IC50 (µM)”) in assay [1] was 0.067 µM.

B2: M76-AAEIR (peptide)
peptide: M76-AAEIR
modifications: reading uncertain; also: printed as M76-AAEIR
Take B2: the “NTM-AAEIR IC50 (µM)” value in assay [1] turned out to be 0.077 µM.

B3: (SAB)AAAAE (peptide)
peptide: {Benzoyl(4-SO2NH2)}-AAAAE-NH2
SMILES: C[C@H](NC(=O)c1ccc(S(N)(=O)=O)cc1)C(=O)N[C@@H](C)C(=O)N[C@@H](C)C(=O)N[C@@H](C)C(=O)N[C@@H](CCC(=O)O)C(N)=O
Consider B3, for which, in assay [2], the “IC50 (µM), hCAII functional assay (p-nitrophenyl acetate hydrolysis)” value (from here on “IC50 (µM) … (p-nitrophenyl acetate hydrolysis)”) came to 0.0484 µM.

B4: (SAB)EAAAE (peptide)
peptide: {Benzoyl(4-SO2NH2)}-EAAAE-NH2
SMILES: C[C@H](NC(=O)[C@H](C)NC(=O)[C@H](CCC(=O)O)NC(=O)c1ccc(S(N)(=O)=O)cc1)C(=O)N[C@@H](C)C(=O)N[C@@H](CCC(=O)O)C(N)=O
As for B4, the “IC50 (µM) … (p-nitrophenyl acetate hydrolysis)” value in assay [2] worked out at 0.0993 µM.

B5: (SAB)HAAAE (peptide)
peptide: {Benzoyl(4-SO2NH2)}-HAAAE-NH2
SMILES: C[C@H](NC(=O)[C@H](C)NC(=O)[C@H](Cc1c[nH]cn1)NC(=O)c1ccc(S(N)(=O)=O)cc1)C(=O)N[C@@H](C)C(=O)N[C@@H](CCC(=O)O)C(N)=O
Take B5: the “IC50 (µM) … (p-nitrophenyl acetate hydrolysis)” value in assay [2] is 0.148 µM.

B6: (SAB)SAAAE (peptide)
peptide: {Benzoyl(4-SO2NH2)}-SAAAE-NH2
SMILES: C[C@H](NC(=O)[C@H](C)NC(=O)[C@H](CO)NC(=O)c1ccc(S(N)(=O)=O)cc1)C(=O)N[C@@H](C)C(=O)N[C@@H](CCC(=O)O)C(N)=O
In the case of B6, the “IC50 (µM) … (p-nitrophenyl acetate hydrolysis)” value in assay [2] was 0.153 µM.

B7: (SAB)LAAAE (peptide)
peptide: {Benzoyl(4-SO2NH2)}-LAAAE-NH2
SMILES: CC(C)C[C@H](NC(=O)c1ccc(S(N)(=O)=O)cc1)C(=O)N[C@@H](C)C(=O)N[C@@H](C)C(=O)N[C@@H](C)C(=O)N[C@@H](CCC(=O)O)C(N)=O
B7: the “IC50 (µM) … (p-nitrophenyl acetate hydrolysis)” value in assay [2] stood at 0.0284 µM.

B8: (SAB)AFAAE (peptide)
peptide: {Benzoyl(4-SO2NH2)}-AFAAE-NH2
SMILES: C[C@H](NC(=O)c1ccc(S(N)(=O)=O)cc1)C(=O)N[C@@H](Cc1ccccc1)C(=O)N[C@@H](C)C(=O)N[C@@H](C)C(=O)N[C@@H](CCC(=O)O)C(N)=O
Turning to B8, the “IC50 (µM) … (p-nitrophenyl acetate hydrolysis)” value in assay [2] worked out at 0.183 µM.

B9: (SAB)FAAAE (peptide)
peptide: {Benzoyl(4-SO2NH2)}-FAAAE-NH2
SMILES: C[C@H](NC(=O)[C@H](C)NC(=O)[C@H](Cc1ccccc1)NC(=O)c1ccc(S(N)(=O)=O)cc1)C(=O)N[C@@H](C)C(=O)N[C@@H](CCC(=O)O)C(N)=O
As to B9, the “IC50 (µM) … (p-nitrophenyl acetate hydrolysis)” value in assay [2] is 0.045 µM.

B10: M65-AAEIR (peptide)
peptide: M65-AAEIR
modifications: reading uncertain; also: printed as M65-AAEIR
In the case of B10, in assay [1], the “NTM-AAEIR IC50 (µM)” value amounted to 0.515 µM.

B11: M88-AAEIR (peptide)
peptide: M88-AAEIR
modifications: reading uncertain; also: printed as M88-AAEIR
Turning to B11, in assay [1], the “NTM-AAEIR IC50 (µM)” value worked out at 0.095 µM.

B12: M67-AAEIR (peptide)
peptide: M67-AAEIR
modifications: reading uncertain; also: printed as M67-AAEIR
As for B12, in assay [1], the “NTM-AAEIR IC50 (µM)” value turned out to be 0.073 µM.
